# Assay results from the supplement of paper PMC7877785.
# ± gives the uncertainty stated by the source.
# Test: self-splicing fitness, log relative to wild type (ln ratio); higher = more splicing; Tetrahymena group I intron in knt gene, E. coli kanamycin selection, DiMSum; sequences stand for … in CUCUCU…GGAGGGAAAAGUUAUCAGGCAUGCACCUGGUAGCUAGUCUUUAAACCAAUAGAUUGCAUCGGUUUAAAAGGCAAGACCGUCAAAUUGCGGGAAAGGGGUCAACAGCCGUUCAGUACCAAGUCUCAGGGGAAACUUUGAGAUGGCCUUGCAAAGGGUAUGGUAAUAAGCUGACGGACAUGGUCCUAACCACGCAGCCAAGUCCUAAGUCAACAGAUCUUCUGUUGAUAUGGAUGCAGUUCACAGACUAAAUGUCGGUCGGGGAAGAUGUAUUCUUCUCAUAAGAUAUAGUCGGACCUCUCCUUAAUGGGAGCUAGCGGAUGAAGUGAUGCAACACUGGAGCCGCUGGGAACUAAUUUGUAUGCGAAAGUAUAUUGAUUAGUUUUGGAGUACUCGUGGUCG
# Method in brief: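 The eight P1ex-region nucleotides of an intron in the knt kanamycin-resistance gene on pET-22b(+) were all randomised and the library put into E. coli BL21(DE3). Six replicate transformations were grown overnight at 37°C or 30°C on LB agar with or without 25 μg/mL kanamycin, together with 100 μg/mL carbenicillin, 50 μM IPTG and 0.2% rhamnose. Colonies were pooled and amplicon-sequenced on an Illumina HiSeq 2500. Fitness from DiMSum is the error-weighted combination of wild-type-normalised replicate fold changes, kanamycin over none.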
Sequence,self-splicing fitness (ln) (30 °C),self-splicing fitness (ln) (37 °C)
GUCCAGCAAUAUUACGUAAU,-0.156 ± 0.07,0.76 ± 0.081
GGGAAGCAAUAUUACGCGCA,-0.0561 ± 0.11,-0.304 ± 0.13
GGCUAGCAAUAUUACGCGGG,-3.62 ± 0.25,-3.06 ± 0.27
AUCUAGCAAUAUUACGCUAC,-1.85 ± 0.34,-1.72 ± 0.4
AAGCAGCAAUAUUACGGGGU,-3.21 ± 0.13,-2.56 ± 0.16
AUCUAGCAAUAUUACGAUAG,-2.36 ± 0.33,-1.16 ± 0.44
AGGAAGCAAUAUUACGAAGU,-2.15 ± 0.24,-1.82 ± 0.33
CGUUAGCAAUAUUACGCGUC,-3.47 ± 0.23,
ACUAAGCAAUAUUACGCAGG,-2.02 ± 0.088,-0.927 ± 0.092
CGCAAGCAAUAUUACGGUAU,-4.65 ± 0.19,-2.42 ± 0.13
AUUCAGCAAUAUUACGCUCG,-1.11 ± 0.16,0.0381 ± 0.19
UUCGAGCAAUAUUACGCAAU,,-2.13 ± 0.43
CGCUAGCAAUAUUACGUAAC,-4.07 ± 0.31,-2.87 ± 0.38
CCUAAGCAAUAUUACGCAUU,-3.56 ± 0.29,-2.2 ± 0.27
CGCAAGCAAUAUUACGAUGC,,-2.4 ± 0.32
ACAUAGCAAUAUUACGCCUA,-1.7 ± 0.24,-0.307 ± 0.2
UCGCAGCAAUAUUACGGCGC,-1.87 ± 0.12,-0.971 ± 0.17
GAAGAGCAAUAUUACGAGGU,-4.02 ± 0.39,-3.52 ± 0.33
GAUAAGCAAUAUUACGUGGU,-4.24 ± 0.19,-2.35 ± 0.15
GCCAAGCAAUAUUACGGGAC,-3.02 ± 0.15,-0.694 ± 0.099
AGAUAGCAAUAUUACGCUAA,-1.46 ± 0.15,-0.455 ± 0.15
CGACAGCAAUAUUACGCCCU,-1.46 ± 0.1,-0.191 ± 0.11
AUGAAGCAAUAUUACGCAGU,-1.36 ± 0.11,-0.415 ± 0.11
CCCAAGCAAUAUUACGGCUU,-4.22 ± 0.22,-3.15 ± 0.17
AUUGAGCAAUAUUACGCUAA,-2.5 ± 0.16,-1.54 ± 0.16

Sequence,self-splicing fitness (ln) (30 °C),self-splicing fitness (ln) (37 °C)
ACGUAGCAAUAUUACGUAAG,-3.51 ± 0.17,-2.45 ± 0.22
GGUGAGCAAUAUUACGGGUG,-3.18 ± 0.26,-2.7 ± 0.27
GGGUAGCAAUAUUACGGACA,-0.93 ± 0.093,-0.223 ± 0.097
CGAGAGCAAUAUUACGUAGU,-2.78 ± 0.3,-1.7 ± 0.27
GGUCAGCAAUAUUACGCGCG,-0.298 ± 0.092,-0.546 ± 0.11
GAGGAGCAAUAUUACGUAUA,,-2.74 ± 0.4
AGCGAGCAAUAUUACGCUAG,-3.66 ± 0.29,-2.04 ± 0.27
CGCGAGCAAUAUUACGGUGA,-2.81 ± 0.14,-1.7 ± 0.11
UAGCAGCAAUAUUACGUCUG,-1.32 ± 0.14,-1.6 ± 0.14
UGAAAGCAAUAUUACGGCAC,-3.23 ± 0.16,-1.48 ± 0.14
AACGAGCAAUAUUACGGUAC,,-1.34 ± 0.22
CAUAAGCAAUAUUACGCCCG,-0.556 ± 0.16,-0.0931 ± 0.22
CGAGAGCAAUAUUACGUAUG,-3.68 ± 0.29,-1.49 ± 0.21
UCGAAGCAAUAUUACGCCCG,-1.33 ± 0.16,-0.864 ± 0.17
AUCAAGCAAUAUUACGUCAG,-3.41 ± 0.18,-1.92 ± 0.16
GACGAGCAAUAUUACGUUAC,,-0.804 ± 0.25
CAAUAGCAAUAUUACGUUGA,-2.59 ± 0.15,-3.59 ± 0.22
GUCGAGCAAUAUUACGAUAG,-4.14 ± 0.47,
CUACAGCAAUAUUACGUAAC,-3.34 ± 0.16,-2.03 ± 0.21
CAGCAGCAAUAUUACGACGU,-0.896 ± 0.076,-0.529 ± 0.079
CCCAAGCAAUAUUACGACGC,-2.8 ± 0.22,-0.545 ± 0.23
GAUUAGCAAUAUUACGCUAC,-3.62 ± 0.42,-1.48 ± 0.29
UCCUAGCAAUAUUACGGCUG,-3.67 ± 0.39,-1.37 ± 0.47
AGGCAGCAAUAUUACGCCGA,-1.28 ± 0.35,-1.97 ± 0.22
ACGCAGCAAUAUUACGACAA,-1.61 ± 0.12,-0.427 ± 0.097
